Target: T1, Nup58(239–415), entire ordered region of Nup58 from Rattus norvegicus, His6 tag cleaved (Rattus norvegicus, UniProt P70581 239-415)
T1 construct: Nup58, Rattus norvegicus, residues 239-415 (entire ordered region); source: co-expressed with Nup54 and Nup62 from a polycistronic vector; not shown: His6, N-terminal, cleaved
T1 sequence: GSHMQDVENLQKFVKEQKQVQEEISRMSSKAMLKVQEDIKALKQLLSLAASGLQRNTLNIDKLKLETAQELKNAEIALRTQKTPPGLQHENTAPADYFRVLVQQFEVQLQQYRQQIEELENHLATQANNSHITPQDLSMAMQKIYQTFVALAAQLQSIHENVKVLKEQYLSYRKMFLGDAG
Assay: SEC; competition: preassembled triple complex (1.5 mg/ml) incubated with Nup54 (453–494) wild type or H469F/Q473L (0.6 mg/ml), then size-exclusion chromatography and SDS-PAGE of column fractions
Details: both partners purified

B1: wild-type Nup54 (453–494), Nup58-cognate segment of Nup54 (domain or fragment, Rattus norvegicus, UniProt P70582 453-494, looked up)
chain: EEKYYIDADLLREIKQHLKQQQEGLSHLISIIKDDLEDIKLV
notes: also called Nup54 segment; wt Nup54 (453–494)
B1: binds.
